Test results reported in article PMC8012516, “Antimicrobial peptide DP7 with potential activity against SARS coronavirus infections” (Signal Transduction and Targeted Therapy, 2021).

Columns and labels:
[1] = molecular target: angiotensin-converting enzyme 2 (UniProt Q9BYF1 18-805); assay: SPR; Biacore; who was immobilised and the conditions are not given; settings: both partners purified
[2] = molecular target: T1, S-receptor-binding domain (RBD)-Fc of SARS-CoV-2 (SARS-CoV-2, UniProt P0DTC2); assay: SPR; settings: both partners purified
T1 construct: also called S-RBD-Fc of SARS-CoV-2; S-RBD-Fc

angiotensin-converting enzyme 2, sequence (Q9BYF1 18-805): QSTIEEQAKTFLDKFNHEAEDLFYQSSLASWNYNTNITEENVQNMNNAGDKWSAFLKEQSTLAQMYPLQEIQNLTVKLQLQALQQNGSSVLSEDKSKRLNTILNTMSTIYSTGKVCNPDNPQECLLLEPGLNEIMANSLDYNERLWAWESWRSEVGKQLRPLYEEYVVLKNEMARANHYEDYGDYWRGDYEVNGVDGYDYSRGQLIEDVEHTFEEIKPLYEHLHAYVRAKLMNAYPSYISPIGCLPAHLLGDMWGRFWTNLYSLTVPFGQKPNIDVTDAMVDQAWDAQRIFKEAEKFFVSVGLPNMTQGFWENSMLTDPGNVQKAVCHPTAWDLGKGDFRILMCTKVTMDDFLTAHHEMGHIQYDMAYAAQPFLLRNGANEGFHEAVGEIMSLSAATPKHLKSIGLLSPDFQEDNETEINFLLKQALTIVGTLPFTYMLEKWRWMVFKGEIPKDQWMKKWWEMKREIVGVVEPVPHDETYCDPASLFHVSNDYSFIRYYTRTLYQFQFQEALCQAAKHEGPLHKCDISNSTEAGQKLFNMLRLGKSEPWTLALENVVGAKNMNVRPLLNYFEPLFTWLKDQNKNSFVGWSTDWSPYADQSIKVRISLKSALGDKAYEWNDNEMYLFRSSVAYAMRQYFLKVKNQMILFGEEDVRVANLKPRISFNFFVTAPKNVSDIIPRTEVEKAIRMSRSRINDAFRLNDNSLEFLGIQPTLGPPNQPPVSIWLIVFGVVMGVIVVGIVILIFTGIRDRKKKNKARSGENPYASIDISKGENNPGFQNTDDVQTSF

B1: antibacterial peptide DP7 (peptide)
peptide: VQWRIRVAVIRK
notes: also called antimicrobial peptide DP7
Which results are given for B1?
Kd [1]: 227 nM; Kd [2]: 51.9 nM
